Results published in publication PMC5052650, “Characterization of the DNA dependent activation of human ARTD2/PARP2”.

Experiments:
[1] = molecular target: T1, ARTD2FL (Homo sapiens, UniProt Q9UGN5 1-583); assay: EMSA; some free DNA even at 4:1; FP: 10 mM Hepes pH 8.0, 150 mM NaCl, 0.1 mM TCEP, 0.1 mM EDTA, 10% glycerol, 25 C, 5 nM DNA (250 nM for stoichiometry); EMSA: 50 mM Hepes, 300 mM NaCl, 0.1 mM EDTA, 10% glycerol, 0.1 mM TCEP, on ice, 1 uM DNA; SEC-SAXS: 20 mM Hepes pH 7.5, 300 mM NaCl, 5% glycerol; details: protein: recombinant; tags: His6-thioredoxin removed by TEV (QS left); nicked dumbbell, two hairpins, 1 strand
T1 sequence (Q9UGN5 whole entry): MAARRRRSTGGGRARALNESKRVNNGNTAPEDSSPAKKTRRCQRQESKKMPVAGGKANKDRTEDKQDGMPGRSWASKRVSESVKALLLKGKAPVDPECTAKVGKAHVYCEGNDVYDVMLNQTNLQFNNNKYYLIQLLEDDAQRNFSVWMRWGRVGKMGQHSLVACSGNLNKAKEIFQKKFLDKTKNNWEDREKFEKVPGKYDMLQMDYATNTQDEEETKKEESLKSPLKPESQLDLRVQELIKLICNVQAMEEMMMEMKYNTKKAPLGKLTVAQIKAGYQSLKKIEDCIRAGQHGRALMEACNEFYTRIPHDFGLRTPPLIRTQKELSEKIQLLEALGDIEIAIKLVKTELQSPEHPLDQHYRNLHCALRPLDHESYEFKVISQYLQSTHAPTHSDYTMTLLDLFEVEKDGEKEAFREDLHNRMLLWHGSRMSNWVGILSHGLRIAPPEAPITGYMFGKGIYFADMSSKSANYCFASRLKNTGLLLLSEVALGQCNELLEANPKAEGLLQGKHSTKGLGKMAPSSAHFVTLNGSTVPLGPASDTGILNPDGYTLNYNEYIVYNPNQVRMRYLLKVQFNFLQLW

[2] = molecular target: T1, ARTD2FL; assay: fluorescence polarization; Kd range 10-63 nM over oligos; 1:1 to 4:1; FP: 10 mM Hepes pH 8.0, 150 mM NaCl, 0.1 mM TCEP, 0.1 mM EDTA, 10% glycerol, 25 C, 5 nM DNA (250 nM for stoichiometry); EMSA: 50 mM Hepes, 300 mM NaCl, 0.1 mM EDTA, 10% glycerol, 0.1 mM TCEP, on ice, 1 uM DNA; SEC-SAXS: 20 mM Hepes pH 7.5, 300 mM NaCl, 5% glycerol; details: protein: recombinant, tags: His6-thioredoxin removed by TEV (QS left), label: fluorescein
[3] = molecular target: ARTD2CAT (Homo sapiens, UniProt Q9UGN5 235-583); assay: EMSA; FP: 10 mM Hepes pH 8.0, 150 mM NaCl, 0.1 mM TCEP, 0.1 mM EDTA, 10% glycerol, 25 C, 5 nM DNA (250 nM for stoichiometry); EMSA: 50 mM Hepes, 300 mM NaCl, 0.1 mM EDTA, 10% glycerol, 0.1 mM TCEP, on ice, 1 uM DNA; SEC-SAXS: 20 mM Hepes pH 7.5, 300 mM NaCl, 5% glycerol; details: protein: recombinant; tags: His6 removed by TEV (SM left); hairpin, blunt
ARTD2CAT, sequence (Q9UGN5 235-583): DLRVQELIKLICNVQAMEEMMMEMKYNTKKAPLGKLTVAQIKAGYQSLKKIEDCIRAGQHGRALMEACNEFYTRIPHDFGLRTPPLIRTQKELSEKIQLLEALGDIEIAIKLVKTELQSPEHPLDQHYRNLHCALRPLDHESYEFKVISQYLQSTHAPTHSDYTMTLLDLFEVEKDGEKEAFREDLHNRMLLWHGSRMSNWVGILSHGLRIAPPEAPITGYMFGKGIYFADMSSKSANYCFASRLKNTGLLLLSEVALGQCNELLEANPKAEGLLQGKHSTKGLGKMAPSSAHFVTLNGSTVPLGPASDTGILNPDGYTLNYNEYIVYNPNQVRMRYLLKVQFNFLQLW

[4] = molecular target: ARTD2WGR+CAT (Homo sapiens, UniProt Q9UGN5 71-583); assay: as above; details: protein: recombinant; tags: His6-ZB removed by TEV (QS left); hairpin, blunt
ARTD2WGR+CAT, sequence (Q9UGN5 71-583): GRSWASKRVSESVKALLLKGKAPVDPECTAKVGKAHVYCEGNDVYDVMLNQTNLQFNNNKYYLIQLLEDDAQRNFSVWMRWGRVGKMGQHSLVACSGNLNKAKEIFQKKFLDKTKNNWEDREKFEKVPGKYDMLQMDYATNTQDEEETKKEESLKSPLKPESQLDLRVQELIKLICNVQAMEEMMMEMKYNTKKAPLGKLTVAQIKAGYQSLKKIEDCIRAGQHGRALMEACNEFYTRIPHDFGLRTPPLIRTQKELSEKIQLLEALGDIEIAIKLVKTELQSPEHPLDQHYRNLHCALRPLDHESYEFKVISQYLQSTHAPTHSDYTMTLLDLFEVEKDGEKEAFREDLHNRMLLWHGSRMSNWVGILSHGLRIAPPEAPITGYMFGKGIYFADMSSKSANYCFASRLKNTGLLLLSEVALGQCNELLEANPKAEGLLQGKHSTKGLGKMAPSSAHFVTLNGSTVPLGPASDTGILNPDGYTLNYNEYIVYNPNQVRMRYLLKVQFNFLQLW

[5] = molecular target: T1, ARTD2FL; assay: EMSA; no free DNA above 2:1; FP: 10 mM Hepes pH 8.0, 150 mM NaCl, 0.1 mM TCEP, 0.1 mM EDTA, 10% glycerol, 25 C, 5 nM DNA (250 nM for stoichiometry); EMSA: 50 mM Hepes, 300 mM NaCl, 0.1 mM EDTA, 10% glycerol, 0.1 mM TCEP, on ice, 1 uM DNA; SEC-SAXS: 20 mM Hepes pH 7.5, 300 mM NaCl, 5% glycerol; details: protein: recombinant; tags: His6-thioredoxin removed by TEV (QS left); hairpin, blunt
[6] = molecular target: T1, ARTD2FL; assay: fluorescence polarization; Kd range 10-63 nM over oligos; binds as monomer (1:1); FP: 10 mM Hepes pH 8.0, 150 mM NaCl, 0.1 mM TCEP, 0.1 mM EDTA, 10% glycerol, 25 C, 5 nM DNA (250 nM for stoichiometry); EMSA: 50 mM Hepes, 300 mM NaCl, 0.1 mM EDTA, 10% glycerol, 0.1 mM TCEP, on ice, 1 uM DNA; SEC-SAXS: 20 mM Hepes pH 7.5, 300 mM NaCl, 5% glycerol; details: protein: recombinant; tags: His6-thioredoxin removed by TEV (QS left); label: fluorescein; hairpin, blunt
[7] = molecular target: T1, ARTD2FL; assay: EMSA; no free DNA only after 4:1; FP: 10 mM Hepes pH 8.0, 150 mM NaCl, 0.1 mM TCEP, 0.1 mM EDTA, 10% glycerol, 25 C, 5 nM DNA (250 nM for stoichiometry); EMSA: 50 mM Hepes, 300 mM NaCl, 0.1 mM EDTA, 10% glycerol, 0.1 mM TCEP, on ice, 1 uM DNA; SEC-SAXS: 20 mM Hepes pH 7.5, 300 mM NaCl, 5% glycerol; details: protein: recombinant; tags: His6-thioredoxin removed by TEV (QS left); blunt, palindromic, 2 copies
[8] = molecular target: T1, ARTD2FL; assay: fluorescence polarization; affinity similar to oligo 40; FP: 10 mM Hepes pH 8.0, 150 mM NaCl, 0.1 mM TCEP, 0.1 mM EDTA, 10% glycerol, 25 C, 5 nM DNA (250 nM for stoichiometry); EMSA: 50 mM Hepes, 300 mM NaCl, 0.1 mM EDTA, 10% glycerol, 0.1 mM TCEP, on ice, 1 uM DNA; SEC-SAXS: 20 mM Hepes pH 7.5, 300 mM NaCl, 5% glycerol; details: protein: recombinant; tags: His6-thioredoxin removed by TEV (QS left); label: fluorescein
[9] = molecular target: T1, ARTD2FL; assay: fluorescence polarization; affinity similar to oligo 39; FP: 10 mM Hepes pH 8.0, 150 mM NaCl, 0.1 mM TCEP, 0.1 mM EDTA, 10% glycerol, 25 C, 5 nM DNA (250 nM for stoichiometry); EMSA: 50 mM Hepes, 300 mM NaCl, 0.1 mM EDTA, 10% glycerol, 0.1 mM TCEP, on ice, 1 uM DNA; SEC-SAXS: 20 mM Hepes pH 7.5, 300 mM NaCl, 5% glycerol; details: protein: recombinant; tags: His6-thioredoxin removed by TEV (QS left); label: fluorescein
[10] = molecular target: T1, ARTD2FL; assay: EMSA; FP: 10 mM Hepes pH 8.0, 150 mM NaCl, 0.1 mM TCEP, 0.1 mM EDTA, 10% glycerol, 25 C, 5 nM DNA (250 nM for stoichiometry); EMSA: 50 mM Hepes, 300 mM NaCl, 0.1 mM EDTA, 10% glycerol, 0.1 mM TCEP, on ice, 1 uM DNA; SEC-SAXS: 20 mM Hepes pH 7.5, 300 mM NaCl, 5% glycerol; details: protein: recombinant; tags: His6-thioredoxin removed by TEV (QS left)

Binder: GGAAGTTCTTTTGAACTTCCTCGAAGCTTTTGCTTCGA (structured_DNA, 5'-phosphate) [oligonucleotide 2]
- binding result [1]: binds

Binder: GGAAGTTCTTTTGAACTTCCTCGAAGCTTTTGCTTCGA (structured_DNA, 5'-phosphate) [oligonucleotide 41 (labelled 2)]
- binding result ([2]; nicked dumbbell, two hairpins, 1 strand): binds

Binder: GGAAGTTCTTTTGAACTTCC (structured_DNA, 5'-phosphate) [oligonucleotide 6]
- binding result [3]: no binding
- binding result [4]: binds
- binding result [5]: binds

Binder: GGAAGTTCTTTTGAACTTCC (structured_DNA, 5'-phosphate) [oligonucleotide 42 (labelled 6)]
- binding result [6]: binds

B1: oligonucleotide 18 (dsDNA)
DNA 1: GCCTTAGCGCGTATACGCGCTAAGGC
DNA 2: GCCTTAGCGCGTATACGCGCTAAGGC
modifications: 5'-phosphate
- binding result [7]: binds

B2: oligonucleotide 39 (labelled 19) (dsDNA)
DNA 1: CCAGGACCAGGGCGCAGATCACCTTGTTCTCCA
DNA 2: TGGAGAACAAGGTGATCTGCGCCCTGGTCCTGG
- binding result [8]: binds

B3: oligonucleotide 40 (labelled 20) (dsDNA)
DNA 1: CCAGGACCAGGGCGCAGATCACCTTGTTCTCCA
DNA 2: TGGAGAACAAGGTGATCTGCGCCCTGGTCCTGG
modifications: 5'-phosphate
- binding result [9]: binds

B4: oligonucleotide 20 (dsDNA)
DNA 1: CCAGGACCAGGGCGCAGATCACCTTGTTCTCCA
DNA 2: TGGAGAACAAGGTGATCTGCGCCCTGGTCCTGG
modifications: 5'-phosphate
- binding result [10]: binds

B5: oligonucleotide 38 (labelled 18) (dsDNA)
DNA 1: GCCTTAGCGCGTATACGCGCTAAGGC
DNA 2: GCCTTAGCGCGTATACGCGCTAAGGC
modifications: 5'-phosphate
- binding result ([2]; blunt, palindromic, 2 copies): binds
